Source: patent US20210069289

Target: human octamer-binding transcription factor 4 (OCT4), endogenous in NCCIT and NTERA-2 cells (UniProt Q01860)
UniProt Q01860, sequence (Q01860 whole entry, looked up): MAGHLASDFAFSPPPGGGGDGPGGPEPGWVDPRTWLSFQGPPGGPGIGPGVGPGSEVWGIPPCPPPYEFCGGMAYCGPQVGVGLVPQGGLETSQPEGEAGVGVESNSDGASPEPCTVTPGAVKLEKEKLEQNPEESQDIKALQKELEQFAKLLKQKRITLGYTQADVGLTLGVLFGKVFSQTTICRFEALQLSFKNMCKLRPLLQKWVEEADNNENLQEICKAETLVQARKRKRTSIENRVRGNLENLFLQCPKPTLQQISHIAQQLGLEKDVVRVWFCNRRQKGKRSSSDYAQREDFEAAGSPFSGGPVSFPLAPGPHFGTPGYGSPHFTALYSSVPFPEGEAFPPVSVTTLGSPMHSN

protein phosphatase 1 (PP1), endogenous in NCCIT and NTERA-2 cells
phosphorylated OCT4 after doxycycline-dependent shRNA suppression of PP1 (western blotting and immunofluorescence staining): when the expression of PP1 was suppressed using doxycycline, the phosphorylated OCT4 was increased
phosphorylation of OCT4 after okadaic acid treatment (western blotting and immunofluorescence staining): when PP1 was inhibited, the phosphorylation of OCT4 was increased
